Measured values published in the supplement of paper PMC11316812.
± gives the standard deviation of the averaged measurements.

Assays:
MCF7 = experiment: percentage of EdU-negative (G0-arrested) nuclei per well, 72 h; higher = more G0 arrest; settings: reference: sequence is the full UniProt precursor, the tested protein was the secreted form or ectodomain
hTERT-HMEC = experiment: as above; settings: reference: sequence is the full UniProt precursor, the tested protein was the secreted form or ectodomain
[1] = protein concentration 0.01725 µM
[2] = protein concentration 0.1725 µM
[3] = protein concentration 0.00975 µM
[4] = protein concentration 0.0975 µM
[5] = protein concentration 0.0240725 µM
[6] = protein concentration 0.240725 µM
[7] = protein concentration 0.00742857 µM
[8] = protein concentration 0.0742857 µM
[9] = protein concentration 0.0225 µM
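Further: secreted proteins added to cultured cells, EdU pulse at the end, nuclei found by Hoechst imaging, EdU status from nuclear versus surrounding ring intensity ratio, PBS as neutral control.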

Sequence: MGAASGRRGPGLLLPLPLLLLLPPQPALALDPGLQPGNFSADEAGAQLFAQSYNSSAEQVLFQSVAASWAHDTNITAENARRQEEAALLSQEFAEAWGQKAKELYEPIWQNFTDPQLRRIIGAVRTLGSANLPLAKRQQYNALLSNMSRIYSTAKVCLPNKTATCWSLDPDLTNILASSRSYAMLLFAWEGWHNAAGIPLKPLYEDFTALSNEAYKQDGFTDTGAYWRSWYNSPTFEDDLEHLYQQLEPLYLNLHAFVRRALHRRYGDRYINLRGPIPAHLLGDMWAQSWENIYDMVVPFPDKPNLDVTSTMLQQGWNATHMFRVAEEFFTSLELSPMPPEFWEGSMLEKPADGREVVCHASAWDFYNRKDFRIKQCTRVTMDQLSTVHHEMGHIQYYLQYKDLPVSLRRGANPGFHEAIGDVLALSVSTPEHLHKIGLLDRVTNDTESDINYLLKMALEKIAFLPFGYLVDQWRWGVFSGRTPPSRYNFDWWYLRTKYQGICPPVTRNETHFDAGAKFHVPNVTPYIRYFVSFVLQFQFHEALCKEAGYEGPLHQCDIYRSTKAGAKLRKVLQAGSSRPWQEVLKDMVGLDALDAQPLLKYFQPVTQWLQEQNQQNGEVLGWPEYQWHPPLPDNYPEGIDLVTDEAEASKFVEEYDRTSQVVWNEYAEANWNYNTNITTETSKILLQKNMQIANHTLKYGTQARKFDVNQLQNTTIKRIIKKVQDLERAALPAQELEEYNKILLDMETTYSVATVCHPNGSCLQLEPDLTNVMATSRKYEDLLWAWEGWRDKAGRAILQFYPKYVELINQAARLNGYVDAGDSWRSMYETPSLEQDLERLFQELQPLYLNLHAYVRRALHRHYGAQHINLEGPIPAHLLGNMWAQTWSNIYDLVVPFPSAPSMDTTEAMLKQGWTPRRMFKEADDFFTSLGLLPVPPEFWNKSMLEKPTDGREVVCHASAWDFYNGKDFRIKQCTTVNLEDLVVAHHEMGHIQYFMQYKDLPVALREGANPGFHEAIGDVLALSVSTPKHLHSLNLLSSEGGSDEHDINFLMKMALDKIAFIPFSYLVDQWRWRVFDGSITKENYNQEWWSLRLKYQGLCPPVPRTQGDFDPGAKFHIPSSVPYIRYFVSFIIQFQFHEALCQAAGHTGPLHKCDIYQSKEAGQRLATAMKLGFSRPWPEAMQLITGQPNMSASAMLSYFKPLLDWLRTENELHGEKLGWPQYNWTPNSARSEGPLPDSGRVSFLGLDLDAQQARVGQWLLLFLGIALLVATLGLSQRLFSIRHRSLHRHSHGPQFGSEVELRHS
- percentage of EdU-negative (MCF7; [1]): 27.2 ± 0.68%
- percentage of EdU-negative (MCF7; [2]): 28.2 ± 4.2%
- percentage of EdU-negative (hTERT-HMEC; [1]): 4.7 ± 0.63%
- percentage of EdU-negative (hTERT-HMEC; [2]): 5.68 ± 0.65%

Sequence: MGADGETVVLKNMLIGINLILLGSMIKPSECQLEVTTERVQRQSVEEEGGIANYNTSSKEQPVVFNHVYNINVPLDNLCSSGLEASAEQEVSAEDETLAEYMGQTSDHESQVTFTHRINFPKKACPCASSAQVLQELLSRIEMLEREVSVLRDQCNANCCQESAATGQLDYIPHCSGHGNFSFESCGCICNEGWFGKNCSEPYCPLGCSSRGVCVDGQCICDSEYSGDDCSELRCPTDCSSRGLCVDGECVCEEPYTGEDCRELRCPGDCSGKGRCANGTCLCEEGYVGEDCGQRQCLNACSGRGQCEEGLCVCEEGYQGPDCSAVAPPEDLRVAGISDRSIELEWDGPMAVTEYVISYQPTALGGLQLQQRVPGDWSGVTITELEPGLTYNISVYAVISNILSLPITAKVATHLSTPQGLQFKTITETTVEVQWEPFSFSFDGWEISFIPKNNEGGVIAQVPSDVTSFNQTGLKPGEEYIVNVVALKEQARSPPTSASVSTVIDGPTQILVRDVSDTVAFVEWIPPRAKVDFILLKYGLVGGEGGRTTFRLQPPLSQYSVQALRPGSRYEVSVSAVRGTNESDSATTQFTTEIDAPKNLRVGSRTATSLDLEWDNSEAEVQEYKVVYSTLAGEQYHEVLVPRGIGPTTRATLTDLVPGTEYGVGISAVMNSQQSVPATMNARTELDSPRDLMVTASSETSISLIWTKASGPIDHYRITFTPSSGIASEVTVPKDRTSYTLTDLEPGAEYIISVTAERGRQQSLESTVDAFTGFRPISHLHFSHVTSSSVNITWSDPSPPADRLILNYSPRDEEEEMMEVSLDATKRHAVLMGLQPATEYIVNLVAVHGTVTSEPIVGSITTGIDPPKDITISNVTKDSVMVSWSPPVASFDYYRVSYRPTQVGRLDSSVVPNTVTEFTITRLNPATEYEISLNSVRGREESERICTLVHTAMDNPVDLIATNITPTEALLQWKAPVGEVENYVIVLTHFAVAGETILVDGVSEEFRLVDLLPSTHYTATMYATNGPLTSGTISTNFSTLLDPPANLTASEVTRQSALISWQPPRAEIENYVLTYKSTDGSRKELIVDAEDTWIRLEGLLENTDYTVLLQAAQDTTWSSITSTAFTTGGRVFPHPQDCAQHLMNGDTLSGVYPIFLNGELSQKLQVYCDMTTDGGGWIVFQRRQNGQTDFFRKWADYRVGFGNVEDEFWLGLDNIHRITSQGRYELRVDMRDGQEAAFASYDRFSVEDSRNLYKLRIGSYNGTAGDSLSYHQGRPFSTEDRDNDVAVTNCAMSYKGAWWYKNCHRTNLNGKYGESRHSQGINWYHWKGHEFSIPFVEMKMRPYNHRLMAGRKRQSLQF
- percentage of EdU-negative (MCF7; [3]): 26.36 ± 0.12%
- percentage of EdU-negative (MCF7; [4]): 26.4 ± 0.85%
- percentage of EdU-negative (hTERT-HMEC; [3]): 5.09 ± 0.52%
- percentage of EdU-negative (hTERT-HMEC; [4]): 6.03 ± 1.7%

Sequence: MGAGATGRAMDGPRLLLLLLLGVSLGGAKEACPTGLYTHSGECCKACNLGEGVAQPCGANQTVCEPCLDSVTFSDVVSATEPCKPCTECVGLQSMSAPCVEADDAVCRCAYGYYQDETTGRCEACRVCEAGSGLVFSCQDKQNTVCEECPDGTYSDEANHVDPCLPCTVCEDTERQLRECTRWADAECEEIPGRWITRSTPPEGSDSTAPSTQEPEAPPEQDLIASTVAGVVTTVMGSSQPVVTRGTTDNLIPVYCSILAAVVVGLVAYIAFKRWNSCKQNKQGANSRPVNQTPPPEGEKLHSDSGISVDSQSLHDQQPHTQTASGQALKGDGGLYSSLPPAKREEVEKLLNGSAGDTWRHLAGELGYQPEHIDSFTHEACPVRALLASWATQDSATLDALLAALRRIQRADLVESLCSESTATSPV
- percentage of EdU-negative (MCF7; [5]): 24.6 ± 0.37%
- percentage of EdU-negative (MCF7; [6]): 23 ± 1.5%
- percentage of EdU-negative (hTERT-HMEC; [5]): 4.77 ± 0.43%
- percentage of EdU-negative (hTERT-HMEC; [6]): 4.6 ± 0.64%

Sequence: MGALARALPSILLALLLTSTPEALGANPGLVARITDKGLQYAAQEGLLALQSELLRITLPDFTGDLRIPHVGRGRYEFHSLNIHSCELLHSALRPVPGQGLSLSISDSSIRVQGRWKVRKSFFKLQGSFDVSVKGISISVNLLLGSESSGRPTVTASSCSSDIADVEVDMSGDLGWLLNLFHNQIESKFQKVLESRICEMIQKSVSSDLQPYLQTLPVTTEIDSFADIDYSLVEAPRATAQMLEVMFKGEIFHRNHRSPVTLLAAVMSLPEEHNKMVYFAISDYVFNTASLVYHEEGYLNFSITDDMIPPDSNIRLTTKSFRPFVPRLARLYPNMNLELQGSVPSAPLLNFSPGNLSVDPYMEIDAFVLLPSSSKEPVFRLSVATNVSATLTFNTSKITGFLKPGKVKVELKESKVGLFNAELLEALLNYYILNTFYPKFNDKLAEGFPLPLLKRVQLYDLGLQIHKDFLFLGANVQYMRV
- percentage of EdU-negative (MCF7; [7]): 23.1 ± 3.5%
- percentage of EdU-negative (MCF7; [8]): 26.4 ± 0.82%
- percentage of EdU-negative (hTERT-HMEC; [7]): 5.11 ± 0.45%
- percentage of EdU-negative (hTERT-HMEC; [8]): 7.684 ± 0.069%

Sequence: MGALRPTLLPPSLPLLLLLMLGMGCWAREVLVPEGPLYRVAGTAVSISCNVTGYEGPAQQNFEWFLYRPEAPDTALGIVSTKDTQFSYAVFKSRVVAGEVQVQRLQGDAVVLKIARLQAQDAGIYECHTPSTDTRYLGSYSGKVELRVLPDVLQVSAAPPGPRGRQAPTSPPRMTVHEGQELALGCLARTSTQKHTHLAVSFGRSVPEAPVGRSTLQEVVGIRSDLAVEAGAPYAERLAAGELRLGKEGTDRYRMVVGGAQAGDAGTYHCTAAEWIQDPDGSWAQIAEKRAVLAHVDVQTLSSQLAVTVGPGERRIGPGEPLELLCNVSGALPPAGRHAAYSVGWEMAPAGAPGPGRLVAQLDTEGVGSLGPGYEGRHIAMEKVASRTYRLRLEAARPGDAGTYRCLAKAYVRGSGTRLREAASARSRPLPVHVREEGVVLEAVAWLAGGTVYRGETASLLCNISVRGGPPGLRLAASWWVERPEDGELSSVPAQLVGGVGQDGVAELGVRPGGGPVSVELVGPRSHRLRLHSLGPEDEGVYHCAPSAWVQHADYSWYQAGSARSGPVTVYPYMHALDTLFVPLLVGTGVALVTGATVLGTITCCFMKRLRKR [Q969P0]
- percentage of EdU-negative (MCF7; [9]): 25 ± 1.3%
- percentage of EdU-negative (MCF7; protein concentration 0.225 µM): 26.5 ± 0.91%
- percentage of EdU-negative (hTERT-HMEC; [9]): 5.09 ± 0.17%
- percentage of EdU-negative (hTERT-HMEC; protein concentration 0.225 µM): 5.05 ± 0.19%
